From patent US20220396632A1 (VERSEAU THERAPEUTICS, published 2022) come the findings set out here.

The target of assay [1] is T1, Biotin PSGL-1(42-62) L49A peptide (C-terminal Lys-biotin).
T1 peptide: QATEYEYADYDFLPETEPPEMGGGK
Put plainly: ELISA; against wild-type PSGL-1 42-62. On the technique in general: ELISA stands for enzyme-linked immunosorbent assay.

In assay [2] the target is T2, Biotin PSGL-1(290-310) peptide (human, N-terminal acetyl; C-terminal Lys-biotin).
T2 peptide: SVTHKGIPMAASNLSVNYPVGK
Description: ELISA, streptavidin-immobilized biotin peptide [cont.]. The procedure:
(§1) A typical ELISA experiment involved binding of a single concentration or serially diluted mAb in assay buffer (3% BSA in PBS containing 0.05% Tween®20, pH 7.4) onto BSA blocked high binding microtiter plate half-wells (Corning Cat. #3690), which contained PSGL-1 protein or streptavidin-immobilized biotin peptide. After incubation for 45 min. at 37° C., the plate was washed 3 times with wash buffer (PBS containing 0.05% Tween®20, pH 7.4), and an appropriate HRP-conjugated secondary antibody added (25 ul/well) (HRP goat anti-mouse or anti-human IgG). After 45 min. incubation at 37° C., the plate was washed and antibody bound to plate-immobilized target was determined at A450 nm using HRP substrate (3,3′5,5′-tetramethylbenzidine (TMB)). For each antibody, duplicate values were averaged and assay background subtracted.

The target of assay [3] is T3, Biotin PSGL-1(105-125) peptide (human, N-terminal acetyl; C-terminal Lys-biotin).
T3 peptide: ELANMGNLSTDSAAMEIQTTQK
The description is as above. The procedure:
as §1

Assay [4] addresses T4, Recombinant human PSGL-1(ECD)-hFc1 (R&D Systems, Cat. 3345-PS) (human, UniProt Q14242 42-305).
T4 construct: Bought; Gln42-Val295 counted on AAC50061; also called PSGL-1-Fc; PSGL-1-hFc1 chimera; not shown: human IgG1 Fc, Pro100-Lys330
T4 sequence: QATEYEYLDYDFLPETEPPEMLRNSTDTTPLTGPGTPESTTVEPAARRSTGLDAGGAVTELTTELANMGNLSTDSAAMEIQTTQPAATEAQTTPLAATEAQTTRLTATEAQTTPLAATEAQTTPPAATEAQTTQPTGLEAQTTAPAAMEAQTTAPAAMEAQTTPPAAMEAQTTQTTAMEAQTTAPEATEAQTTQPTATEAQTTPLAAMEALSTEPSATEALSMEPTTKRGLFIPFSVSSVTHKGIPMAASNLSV
Description: Octet tandem; competitor 18K07. The procedure:
Antibody binning was performed by ForteBio Octet® using a tandem assay format, with anti-human IgG biosensor-immobilized PSGL-1(ECD)-hFc1 protein, binding of competitor mAb followed by analyte antibody. As competition controls, the same antibody was competed against itself, and mAb competition was performed bidirectionally.
Antibody binning by tandem octet was performed by immobilizing 10 ug/mL PSGL-1(ECD)-hFc1 (R&D Systems, Cat. #3345-PS) in PBS, pH 7.4, onto anti-human IgG capture biosensors (ForteBio, Cat. #18-5060), binding of 100 nM competitor antibody for 300 sec., followed by binding of 100 nM of analyte mAb for 300 s in kinetic buffer (0.1% BSA in PBS containing 0.02% tween 20 and 0.05% sodium azide, pH 7.4). Synagis (Johnson et al. (1997) J. Infect. Dis. 176:1215-1224) served as a negative control mAb for competition. An Fc quench step (0.25 mg/mL human IgG Fcl; BioXcell, Cat. #BE0096, in kinetic buffer) was included when human mAbs were tested to prevent high background from the antibodies binding to the anti-human IgG biosensor. Biosensor regeneration buffer consisted of 10 mM glycine, pH 2.0.
A general note: BLI is a label-free optical method that tracks binding on a fibre tip over time.

The target in assay [5] is T5, Biotin PSGL-1(42-62) Y51A peptide (C-terminal Lys-biotin).
T5 peptide: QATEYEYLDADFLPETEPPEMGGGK
Description: ELISA; against wild-type PSGL-1 42-62.

Assay [6] has as its target T6, Biotin sY46 PSGL-1(42-62) peptide (human, sulfotyrosine at Y46; C-terminal Lys-biotin).
T6 peptide: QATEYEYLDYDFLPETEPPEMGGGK
Put plainly: ELISA, plate-bound mAb captures biotin peptide. As for the experimental part: (§2) Two ELISA methods were performed. One procedure detected mAb binding to its plate-immobilized target and the other measured the immobilized antibody's ability to capture biotinylated PSGL-1₄₂₋₆₂. […] The plate was incubated for 45 min at 37° C. Plates were washed 3 times with wash buffer (PBS containing 0.05% tween 20, pH 7.4) and a single concentration (2 to 500 nM) or serially diluted (0.002-100 nM) anti-PSGL-1 mAb was added (25 ul/well) in assay buffer into appropriate wells. The plate was incubated for 45 min at 37° C., washed 3 times, and an appropriate HRP-conjugated secondary antibody added (25 ul/well) (HRP goat anti-mouse or anti-human IgG). After 45 min incubation at 37° C., the plate was washed, and antibody bound to plate-immobilized target was determined at A450 nm using HRP substrate (3,3′,5,5′-etramethylbenzidine (TMB)). For each antibody, duplicate values were averaged and assay background was subtracted. Except for the following, ELISAs involving plate-immobilized mAb capturing of biotinylated PSGL-1₄₂₋₆₂ peptides was performed in the same manner as described above: 3 ug/mL/25 ul per well of mAb was coated directly onto microtiter plate wells; biotinylated unmodified or sulfotyrosine PSGL-1₄₂₋₆₂ was serially diluted (3 nM-3 uM) into appropriate wells, and antibody-bound peptide was detected using HRP-streptavidin (Jackson Immunoresearch, Cat. #016-030-084).

Assay [7] addresses T7, Biotin Y46,48,51(SO3) PSGL-1(42-62) peptide (human, sulfotyrosine at Y46, Y48 and Y51; C-terminal Lys-biotin).
T7 construct: also called fully sulfated N-terminal PSGL-1 peptide
T7 peptide: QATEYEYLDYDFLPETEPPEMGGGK
Description: ELISA, plate-bound mAb captures biotin peptide. As for the experimental part: as §2

B1: 43B6 (antibody, V domains shown)
VH: EVQLQQSGPDLVKPGALVKISCKASGYSFTAYYIHWVKQSHGKSLEWIGRVNPNTGGTSYNPKFKGKAILNVDKSSSTAYMELRSLTSEDSAVYYCARSGSPYYRYDDWGQGTTLTVSS
VL: ENVLTQSPAIMSASPGEKVTMTCRASSTVNSTYLHWFQQKSGASPKLWIYGSSNLASGVPARFSGSGSGTSYSLTISSVEAEDAATYYCQQYSGYPLTFGAGTTLELK
notes: Control anti-PSGL-1 mAb, recombinant; only variable domains given; also called 43B3
As to B1, in assay [1], the EC50Ala/EC50 wt turned out to be 12.2 fold.

B2: 18K07 (antibody, V domains shown)
VH: QIQLVQSGPELKKPGETVKISCEASGYTFTTYGMNWVKQAPGKGLKWMGWINTYSGVPTYADDFQGRFAFSVETSATTAYLQINNLKNEDAATYFCARSDDTYYGFAYWGQGTLVTVSA
VL: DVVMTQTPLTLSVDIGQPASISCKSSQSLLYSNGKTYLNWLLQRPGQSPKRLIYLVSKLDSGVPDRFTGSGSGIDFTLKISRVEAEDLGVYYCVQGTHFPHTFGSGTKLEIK
notes: From mouse immunisation; only variable domains given
Regarding B2, the binding result in assay [2] and in assay [3] was “no binding (tested: 10 nM)” each time. Besides, the “% binding of analyte mAb” value in assay [4] is 35.2%.

B3: 16L15 (antibody, V domains shown)
VH: DVKLVESGGGLVKLGGSLKLSCAASGFTFSSYYMSWVRQTPEKRLEWVATISNGGGSTYYPDSVKDRFTISRDNAKNTLYLQMSSLNSEDTAVYYCAKPLYYSNPWFAYWGQGTLVTVSA
VL: DVLLTQTPLSLPVSLGDQASISCRSSQSIVHSNGNTYLEWYLQKPGQSPKLLIYKVSNRFSGVPDRFSGSGSGTDFTLKISRVEAEDLGVYYCFQGSHVPRTFGGGTKLEIK
notes: as for B2
Consider B3, for which the EC50Ala/EC50 wt worked out at 3.6 fold in assay [1] and 9.3 fold in assay [5].

B4: 9F9 (antibody, V domains shown)
VH: EVQLVETGGGLVQPKGSLKLSCAASGFTFNTNAMNWVRQAPGKGLEWVARIRSKSNNYATYYADSVKDRFTISRDDTQSMIYLQMNNLKTEDTGMYYCVRGGSYWYFDVWGAGTTVTVSS
VL: DVLMTQTPLSLPVSLGDQASISCRSSQSIVNSNGNTYLEWYLQKPGQSPKLLIYKVSNRFSGVPDRFSGSGSGTDFTLKISRVEAEDLGVYYCFQGSHVPWTFGGGTKLEIK
notes: Control anti-PSGL-1 mAb, recombinant; only variable domains given; also called 9F6
Take B4: the EC50Ala/EC50 wt in assay [5] turned out to be 10.8 fold.

B5: 10F01 (antibody, IgG4, V domains shown)
VH: EVQLVQSGGGLVQPGGSLRLSCAASGFTFSSYAMSWVRQAPGKGLEWVSALRGGDGGTYHADSVKGRFTISGDSSKNTLYLQMNSLRAEDTAVYYCARRMVGAAYAFDIWGQGTMVTVSS
VL: LPVLTQPHSVSESPGKTVTISCTRSSGSIADNFVQWYRQRPGSAPTTVIYEGDQRPSGVPGRFSGSIDSSSNSASLTISGLQTDDEADYYCQSFDSYNRRTHVVFGGGTKLTVL
Turning to B5, the results for the EC50 in assay [6] and in assay [7] were approximately 2000 nM and approximately 1 nM, respectively.

B6: 16E17 (antibody, V domains shown)
VH: QIQLVQSGPELKKPGETVKISCKASGYAFTTYGMSWVKQAPGKGLKWMGWINTYSGVPKYADDFKGRFAFSLETSASTAYLHINNLKNEDTATYFCGRHYYGSSYFDYWGQGTTLTVSS
VL: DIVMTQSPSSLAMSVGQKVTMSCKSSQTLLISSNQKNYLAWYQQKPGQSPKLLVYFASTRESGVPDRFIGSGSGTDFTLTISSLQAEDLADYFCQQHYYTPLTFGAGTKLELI
notes: as for B2
For B6, the “% binding of analyte mAb” value in assay [4] turned out to be 67.4%.

B7: 19N05 (antibody, V domains shown)
VH: QIQLVQSGPELKKPGETVKISCKASGYTFTTYGMSWVKQAPGKGLKWMGWINTYSGVPTFADDFKGRFAFSLETSASTAYLQINNLKNEDTATFFCARNYYGNHYFDYWGQGTTLTVSS
VL: DVQITQSPSYLAASPGETISINCRASNNINKYLAWYQEKPGKTNKLLIYSGSTLQSGIPSRFSGSGSGTDFTLTISSLEPEDFAMYHCQQHNYYPLTFGAGTKLELK
notes: as for B2
As to B7, in assay [4], the “% binding of analyte mAb” value came to 0%.

B8: 19L04 (antibody, IgG4, V domains shown)
VH: QIQLVQSGPELKKPGETVKISCKASGYTFTTYGMSWVKQAPGKGLKWMGWINTYSGVPTYADDFKGRFAFSLETSASTAYLQINNLKIEDTATYFCARHYYGSHYFDYWGQGTTLTVSS
VL: DIMMTQSPSSLAMSVGQKVTLRCKSSQSLLNSSNQKNYLAWYQQKPGQSPKLLVYFASTRESGVPVRFIGSGSGTDFTLTISSMQAEDLADYFCQQHYFSPLTFGAGTKLELK
notes: as for B2
As to B8, in assay [4], the “% binding of analyte mAb” value came to 50.5%.

Broadly, the EC50 is the midpoint of the concentration-response curve.
